The data set deals with the molecule itself. Briefly: AUC.

For orientation: stoichiometry N means the number of molecules, sites or subunits per partner or assembly.

B1: R135_50, a variant of Mimivirus R135 lacking the first 50 amino acids (domain or fragment)
chain: TKDNLTGDIVIIGAGAAGSLLAHYLARFSNMKIILLEAGHSHFNDPVVTDPMGFFGKYNPPNENISMSQNPSYSWQGAQEPNTGAYGNRPIIAHGMGFGGSTMINRLNLVVGGRTVFDNDWPVGWKYDDVKNYFRRVLVDINPVRDNTKASITSVALDALRIIAEQQIASGEPVDFLLNKATGNVPNVEKTTPDAVPLNLNDYEGVNSVVAFSSFYMGVNQLSDGNYIRKYAGNTYLNRNYVDENGRGIGKFSGLRVVSDAVVDRIIFKGNRAVGVNYIDREGIMHYVKVNKEVVVTSGAFYTPTILQRSGIGDFTYLSSIGVKNLVYNNPLVGTGLKNHYSPVTITRVHGEPSEVSRFLSNMAANPTNMGFKGLAELGFHRLDPNKPANANTVTYRKYQLMMTAGVGIPAEQQYLSGLSPSSNNLFTLIADDIRFAPEGYIKIGTPNIPRDVPKIFFNTFVTYTPTSAPADQQWPIAQKTLAPLISALLGYDIIYQTLMSMNQTARDSGFQVSLEMVYPLNDLIYKLHNGLATYGANWWHYFVPTLVGDDTPAGREFADTLSKLSYYPRVGAHLDSHQGCSCSIGRTVDSNLKVIGTQNVRVADLSAAAFPPGGNTWATASMIGARAVDLILGFPYLRDLPVNDVPILNVN
With B1, the “stoichiometry N” value is 2.

The values above are taken from PMC4456301 (Structure (London, England : 1993), 2015).
